Results published in US20240374747A1, “FUSION PROTEIN OF VHH ANTIBODY AND STREPTAVIDIN MUTANT” (The University of Tokyo, priority 2023, published 2024).
Read-outs that look alike come from different tables or passages of the source.

Legend:
[1] = tested on: Her2-positive cells (KPL-4); format: cell-based
Method: Her2-positive cells (KPL-4) were seeded on a 96-well plate to result in a cell count of 1×10^3 cells/well and a culture solution amount of 50 μL/well and were then cultured overnight. […] After the dilution series had been prepared, 50μ of the complex was each added to the cells, and the cells are cultured for 6 to 7 days. […] A reagent was added in accordance with the dosage and administration described in the instruction manual, and the resulting cells were then incubated at 37° C. in a CO2 incubator for 1.5 hours. After that, the absorbance at 450 nm was measured, and the mean value was then calculated, followed by background correction. Thereafter, the control was set at 100%, and the cell proliferation percentage to the control under individual conditions was calculated.

[2] = pH conditions of dialysis buffer for tetramer formation (non-reducing electrophoresis, densitometry); format: physicochemical; settings: dialyzed with refolding buffer B (pH 8.0) to remove guanidine hydrochloride
[3] = tested on: Her2-positive cells (KPL-4)
Method: Her2-positive cells (KPL-4) were seeded on a 96-well plate to result in a cell count of 1×10^4 cells/well and a culture solution amount of 50 μL/well and were then cultured overnight. […] A reagent was added in accordance with the dosage and administration described in the instruction manual, and the resulting cells were then incubated at 37° C. in a CO2 incubator for 1.5 hours. […] Thereafter, the control was set at 100%, and the cell proliferation percentage to the control under individual conditions was calculated.

[4] = SPR analysis of interaction between Anti-HER2 VHH-Cupid and Psyche-Duocarmycin (Biacore T200); format: binding
Method: The surface plasmon resonance (SPR) analysis was performed using a Biacore T200 (Cytiva). […] The association and dissociation rate constants were evaluated using Biacore T200 Evaluation Software version 3 (Cytiva) by bivalent analyte model, and KD values were calculated.

[5] = pH conditions of dialysis buffer for tetramer formation (non-reducing electrophoresis, densitometry); format: physicochemical
Method: Then, the sample was put into dialysis tube and dialyzed with buffers (50 mM sodium phosphate, 400 mM arginine HCl, pH 4.0˜8.0). 100 μL of the sample after refolding was dialyzed at 25° C. for 1 hour using 30 mL of buffer and the Mini Dialysis Kit 1 kD (Cytiva). Thereafter, dialysis was performed at 4° C. for 18 hours with 30 mL of fresh buffer, followed by overnight dialysis at 4° C. with 30 mL of fresh buffer. The post-dialysis samples from each pH condition were analyzed by non-reducing electrophoresis and the result image was shown in FIG. 7. […] As shown in FIG. 7 and Table 2, the monomers were equal to or less than 8% and the tetramers were equal to or more than 92% in pH of 6.0 or less, whereas the percentage of monomers increased at a pH of 6.5 or more. At pH 8.0, the same as the pH of refolding buffer B, 81% of the monomers and 19% of the tetramers were present. […] The theoretical pIs of Anti-HER2 VHH and Cupid moieties were approximately 7.6 and 6.5, respectively. Therefore, it is preferable that a buffer for tetramer formation should be pH 6.0 or less to avoid aggregation induced by the Cupid moiety.

B1: Anti-HER2 VHH-Cupid: fusion protein of an anti-HER2 VHH single-domain antibody (SEQ ID NO: 2), Gly-Ser linker and Cupid mutant streptavidin; forms a tetramer (protein)
chain: MQVQLQESGGGSVQAGGSLKLTCAASGYIFNSCGMGWYRQSPGRERELVSRISGDGDTWHKESVKGRFTISQDNVKKTLYLQMNSLKPEDTAVYFCAVCYNLETYWGQGTQVTVSSGGGGSGGGGSGGGGSAEAGITGTWSDQLGDTFIVTAGADGALTGTYENAVGGAESRYVLTGRYDSAPATDGSGTALGWTVAWKNNSKNAHSATTWSGQYVGGADAKINTQWLLTSGTTNANAWKSTLVGHDTFTKVKPSAASHHHHHH
modifications: tetramer
notes: forms a tetramer
- cytotoxic activity compared with FL2 as vector [1]: stronger cytotoxic activity than FL2
- oligomeric state after dialysis with refolding buffer B [2]: almost all of the Anti-HER2 VHH-Cupid were monomeric
- cytotoxic activity compared with FL2 as vector [3]: stronger cytotoxic activity than FL2
- association rate constant (Ka1) ([4]; Anti-HER2 VHH-Cupid captured via anti-histidine antibody, Psyche-Duocarmycin analyte 10 nM to 0.3125 nM, bivalent analyte model): 1.336×10^4 l/Ms
- binding activity to Psyche-Duocarmycin ([4]; SPR): had binding activity to Psyche-Duocarmycin
- Monomer band (%) ([5]; dialysis buffer pH 4.0): 4%
- Tetramer band (%) ([5]; dialysis buffer pH 4.0): 96%
- Monomer band (%) ([5]; dialysis buffer pH 5.0): 6%
- Tetramer band (%) ([5]; dialysis buffer pH 5.0): 94%
- Monomer band (%) ([5]; dialysis buffer pH 5.5): 8%
- Tetramer band (%) ([5]; dialysis buffer pH 5.5): 92%
- Monomer band (%) ([5]; dialysis buffer pH 6.0): 8%
- Tetramer band (%) ([5]; dialysis buffer pH 6.0): 92%
- Monomer band (%) ([5]; dialysis buffer pH 6.5): 13%
- Tetramer band (%) ([5]; dialysis buffer pH 6.5): 87%
- Monomer band (%) ([5]; dialysis buffer pH 7.0): 35%
- Tetramer band (%) ([5]; dialysis buffer pH 7.0): 65%
- Monomer band (%) ([5]; dialysis buffer pH 7.5): 77%
- Tetramer band (%) ([5]; dialysis buffer pH 7.5): 23%
- Monomer band (%) ([5]; dialysis buffer pH 8.0): 81%
- Tetramer band (%) ([5]; dialysis buffer pH 8.0): 19%
- tetramer formation of the refolded sample ([5]; dialysis buffers pH 4.0-8.0, FIG. 7): formed tetramers in pH-dependent manner
- percentage of monomers ([5]; pH of 6.0 or less): ≤ 8%
- percentage of tetramers ([5]; pH of 6.0 or less): ≥ 92%
